Patent publication US20220305136A1, “ANTI-CTLA4 CONJUGATES” (Ascendis Pharma Oncology Division A/S, priority 2019, published 2022)

Assay: Plasma pharmacokinetics of HHC^MET in Wistar rats
Format: in vivo
Settings: n=3
Description: This study was performed in order to investigate the plasma pharmacokinetics of HHC^MET in Wistar rats following subcutaneous and intramuscular administration of transient HHC^MET-linker hydrogel prodrug 32 or following subcutaneous or intravenous administration of free HHC^MET. Animals (n=3 per group) received either a single SC injection in the neck region or a single IM injection in the thigh musculature of a formulation of 32 (10 mg/kg HHC^MET equivalents) or a single SC injection in the neck region or IV injection in the tail vein of an HHC^MET formulation (10 mg/kg HHCMet). At selected time points, 200 μL blood were collected in L^1-Heparin tubes and processed to plasma by centrifugation at 3,000 g for 10 minutes at 4° C.
HHC^MET concentrations in rat plasma were determined with an in-house developed sandwich ELISA setup. For capturing HHC^MET, a human CTLA-4 (AA Ala37-Ser160)—Fc Tag fusion protein (Supplier AcroBiosystem, Newark, Del.; USA, catalog no. CT4-H5255) was coated to the ELISA plate wells and read-out was performed via a rabbit anti-camelid VHH antibody conjugated with horseradish peroxidase (supplier Genscript, Piscataway, N.J., USA, catalog no. A01861-200).
Calibration standards of HHC^MET in blank plasma were prepared as follows: thawed L^1-Heparin Wistar rat plasma was homogenized. The free HHC^MET formulation was spiked into blank plasma at concentrations between 96.0 ng/mL and 3.00 ng/mL with additional higher and lower anchor points. These solutions were used for the generation of a calibration curve. Calibration curves were analyzed via a 4-parameter logarithmic fit and 1/Y weighted. Calibration curves were confirmed via separately prepared quality control standards at 10, 40 and 80 ng/mL.

B1: HHC^MET: custom made protein of SEQ ID NO:2, expressed from E. coli; captured by human CTLA-4 and detected with anti-camelid VHH antibody in ELISA (protein)
chain: EVQLVESGGGLVQAGGSLRLSCAASGGTFSFYGMGWFRQAPGKEQEFVADIRTSAGRTYYADSVKGRFTISRDNAKNTVYLQMNSLKPEDTAVYYCAAEMSGISGWDYWGQGTQVTVSSGGGGSGGGSEVQLVESGGGLVQAGGSLRLSCAASGGTFSFYGMGWFRQAPGKEQEFVADIRTSAGRTYYADSVKGRFTISRDNAKNTVYLQMNSLKPEDTAVYYCAAEMSGISGWDYWGQGTQVTVSS
modifications: nanobody
notes: captured by human CTLA-4 and detected with anti-camelid VHH antibody in ELISA
- mean HHC^MET concentration (0.25 h, 10 mg/kg HHC^MET (equivalents), subcutaneous): 2540 ng/mL
- mean HHC^MET concentration (0.25 h, 10 mg/kg intravenous): 17400 ng/mL
- mean HHC^MET concentration (1 h, 10 mg/kg HHC^MET (equivalents), subcutaneous): 5090 ng/mL
- mean HHC^MET concentration (1 h, 10 mg/kg intravenous): 3530 ng/mL
- mean HHC^MET concentration (4 h, 10 mg/kg HHC^MET (equivalents), subcutaneous): 2280 ng/mL
- mean HHC^MET concentration (4 h, 10 mg/kg intravenous): 1720 ng/mL
- mean HHC^MET concentration (24 h, 10 mg/kg HHC^MET (equivalents), subcutaneous, LLOQ 3.00 ng/mL): 2.60 ng/mL
- mean HHC^MET concentration (24 h, 10 mg/kg intravenous): 8.27 ng/mL
- mean HHC^MET concentration (32 h, 10 mg/kg HHC^MET (equivalents), subcutaneous, LLOQ 3.00 ng/mL): <LLOQ
- mean HHC^MET concentration (32 h, 10 mg/kg intravenous, LLOQ 3.00 ng/mL): <LLOQ
- mean HHC^MET concentration (48 h, 10 mg/kg HHC^MET (equivalents), subcutaneous, LLOQ 3.00 ng/mL): <LLOQ
- mean HHC^MET concentration (48 h, 10 mg/kg intravenous, LLOQ 3.00 ng/mL): <LLOQ
- mean HHC^MET concentration (72 h, 10 mg/kg HHC^MET (equivalents), subcutaneous, LLOQ 3.00 ng/mL): 2.07 ng/mL
- mean HHC^MET concentration (72 h, 10 mg/kg intravenous, LLOQ 3.00 ng/mL): 1.15 ng/mL
- mean HHC^MET concentration (96 h, 10 mg/kg HHC^MET (equivalents), subcutaneous, LLOQ 3.00 ng/mL): <LLOQ
- mean HHC^MET concentration (96 h, 10 mg/kg intravenous, LLOQ 3.00 ng/mL): <LLOQ
- mean HHC^MET concentration (168 h, 10 mg/kg HHC^MET (equivalents), subcutaneous, LLOQ 3.00 ng/mL): <LLOQ
- mean HHC^MET concentration (168 h, 10 mg/kg intravenous, LLOQ 3.00 ng/mL): <LLOQ
